For assay [1], the target named is T1, human tau aggregates (human, UniProt P10636 2-758).
T1 construct: also called fibril tau; tau fibril aggregate
As to the kind of experiment: SPR (BIACORE 2000), antibody captured on protein A, 1:1 fit. As for the experimental part: (§1) Except as noted, all reagents and materials are from BIACORE® AB (Upsala, Sweden). A CM5 chip containing immobilized protein A (generated using standard NHS-EDC amine coupling) on all four flow cells (FC) is used to employ a capture methodology. Antibody samples are prepared at 0.5 μg/mL by dilution into running buffer. Monomeric tau and fibril tau are prepared to concentrations of 2000, 1000, 500, 250, 125, 62.5, 31.25, 15.63, 7.82, 3.91, 1.95, and 0 (blank) nM by dilution into running buffer. Each analysis cycle consists of: (1) capturing antibody samples on separate flow cells (FC2, FC3, and FC4); (2) injection of 250 μL (300 sec) of either monomeric tau or tau fibril aggregate over respective FC at a rate of 50 μL/min; (3) return to buffer flow for 20 mins. to monitor dissociation phase; (4) regeneration of chip surfaces with 25 μL (30 sec) injection of glycine, pH1.5; (5) equilibration of chip surfaces with a 50 μL (60 sec) injection of HBS-EP+.
Data of binding to tau aggregate is processed using standard double-referencing and fit to a 1:1 binding model using Biacore 2000 Evaluation software, version 4.1, to determine the association rate (kₒₙ, M⁻¹s⁻¹ units), dissociation rate (koff, s⁻¹ units), and Rₘₐₓ (RU units). The equilibrium dissociation constant (KD) was calculated from the relationship KD=koff/kₒₙ, and is in molar units. […] Therefore, KD for binding to monomeric tau is obtained by using a steady state binding fit model from plotting the concentration of antigen versus the response unit.
In general terms: Surface plasmon resonance follows binding to a sensor surface in real time, without labels.

Assay [2] has as its target T2, human monomeric (native or non-aggregate) tau (human, UniProt P10636 2-758).
T2 construct: also called Monomeric Tau; monomeric tau
As to the kind of experiment: SPR (BIACORE 2000), antibody captured on protein A, steady state fit. As for the experimental part:
as §1
Data of binding to tau aggregate is processed using standard double-referencing and fit to a 1:1 binding model using Biacore 2000 Evaluation software, version 4.1, to determine the association rate (kₒₙ, M⁻¹s⁻¹ units), dissociation rate (koff, s⁻¹ units), and Rₘₐₓ (RU units). The equilibrium dissociation constant (KD) was calculated from the relationship KD=koff/kₒₙ, and is in molar units. […]

Assay [3] has as its target T3, aggregate tau fibrils purified from AD brain homogenates (human, UniProt P10636-8 2-441, limits assumed).
T3 construct: Brain-derived aggregates; also called Purified AD Tau Fibrils; purified tau fibrils
Kind of assay: ELISA on coated tau fibrils purified from AD brain. For orientation: ELISA stands for enzyme-linked immunosorbent assay.

Assay [4] addresses T4, β-amyloid peptide (1-42) conjugated to BSA (C-terminal Cys43 coupled to maleimide-activated bovine serum albumin).
T4 construct: Coated on the ELISA plate; BSA carrier not written as a chain; also called Aβ1-42-BSA conjugate; Aβ1-42-Cys-BSA conjugate
As to the kind of experiment: competition ELISA on coated Aβ1-42-BSA against biotinylated Mu266, first set of three experiments. As for the experimental part:
(§2) The Aβ₁₋₄₂-BSA conjugate was prepared by dissolving 7.5 mg of Aβ₁₋₄₂-Cys₄₃ (C-terminal cysteine Aβ₁₋₄₂, AnaSpec) in 500 μL of dimethylsulfoxide, and then immediately adding 1,500 μL of distilled water. Two (2) milligrams of maleimide-activated bovine serum albumin (Pierce) was dissolved in 200 μL of distilled water. The two solutions were combined, thoroughly mixed, and allowed to stand at room temperature for two (2) hours. A gel chromatography column was used to separate unreacted peptide from Aβ₁₋₄₂-Cys-BSA conjugate.
(§3) After washing the wells with phosphate buffered saline (PBS) containing 0.1% Tween 20 (Washing Buffer) using an ELISA plate washer, the wells were blocked by adding 300 μL of SuperBlock reagent (Pierce) per well. After 30 minutes of blocking, the wells were washed Washing Buffer and excess liquid was removed.
(§4) As a background control, 100 μl of ELISA Buffer was added. The ELISA plate was incubated at room temperature for 90 min. After washing the wells with Washing Buffer, 100 μl of 1 μg/ml HRP-conjugated streptavidin (Cat #21124, Pierce) was added to each well. […] Absorbance was read at 415 nm. The absorbances were plotted against the log of the competitor concentration, curves were fit to the data points (using Prism) and the IC50 was determined for each antibody using methods well-known in the art.

The target in assay [5] is Aβ1-42. As to the kind of experiment: method only given as 'essentially as described above' (KD=Kd/Ka).
Assay [6] deals with T4, β-amyloid peptide (1-42) conjugated to …. Kind of assay: competition ELISA on coated Aβ1-42-BSA against biotinylated Mu266, second set of three experiments. As for the experimental part:
as §2, §3, §4

By Kd is commonly meant the free concentration of one partner at which half of the binding sites on the other are occupied at equilibrium, for simple one-to-one binding. A lower Kd goes with tighter binding. The term koff denotes the rate constant with which the complex falls apart. What is called kon is a measure of how fast the partners come together. Low readings indicate slower complex formation, high ones faster complex formation. Broadly, the EC50 is the concentration needed to bring the measured effect to its halfway point. As a reminder, the IC50 is the point on the concentration scale where inhibition reaches its midpoint.

T1 sequence (P10636 other isoform, or with tags, fused parts or gaps limits assumed): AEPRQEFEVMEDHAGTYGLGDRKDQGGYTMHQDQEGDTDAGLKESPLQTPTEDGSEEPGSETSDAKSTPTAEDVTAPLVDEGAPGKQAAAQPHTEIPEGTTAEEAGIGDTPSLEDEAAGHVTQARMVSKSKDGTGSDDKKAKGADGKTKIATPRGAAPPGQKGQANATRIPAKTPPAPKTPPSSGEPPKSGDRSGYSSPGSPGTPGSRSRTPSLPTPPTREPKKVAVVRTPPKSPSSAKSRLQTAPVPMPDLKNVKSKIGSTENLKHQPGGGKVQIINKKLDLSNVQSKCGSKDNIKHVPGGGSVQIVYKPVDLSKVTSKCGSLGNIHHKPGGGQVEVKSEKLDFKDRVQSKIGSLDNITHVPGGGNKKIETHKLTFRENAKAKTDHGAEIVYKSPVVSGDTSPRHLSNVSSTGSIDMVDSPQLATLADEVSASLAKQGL
T2 sequence (P10636 other isoform, or with tags, fused parts or gaps limits assumed): as above
T3 sequence (P10636 other isoform, or with tags, fused parts or gaps limits assumed): as above

B1: Exemplified anti-Tau antibody (having both HCs of SEQ ID NO.68 and both LCs of SEQ ID NO.67) (antibody, human IgG4 S228P, kappa, F234A L235A, V domains shown)
VH: EVQLVQSGAEVKKPGESLKISCKGSGYTFSNYWIEWVRQMPGKGLEWMGEILPGSDSIKYEKNFKGQVTISADKSISTAYLQWSSLKASDTAMYYCARRGNYVDDWGQGTLVTVSS
VL: EIVLTQSPGTLSLSPGERATLSCRSSQSLVHSNQNTYLHWYQQKPGQAPRLLIYKVDNRFSGIPDRFSGSGSGTDFTLTISRLEPEDFAVYYCSQSTLVPLTFGGGTKVEIKR
notes: also called Exemplified anti-Tau mAb; exemplified tau monoclonal antibody
For the molecule B1, in assay [1], the dissociation constant (Kd) is less than 220 pM, the koff is less than 1e-05 s⁻¹ and the kon was 45900 M⁻¹ s⁻¹. Further, in assay [2], the Kd was found to be 235000 pM. Moreover, the concentration giving a half-maximal response (EC50) in assay [3] was 6.8 pM.

B2: humanized 266 antibody (Hu266) (antibody, human IgG1, kappa, V domains shown)
VH: EVQLVESGGGLVQPGGSLRLSCAASGFTFSRYSMSWVRQAPGKGLELVAQINSVGNSTYYPDTVKGRFTISRDNAKNTLYLQMNSLRAEDTAVYYCASGDYWGQGTLVTVSS
VL: DVVMTQSPLSLPVTLGQPASISCRSSQSLIYSDGNAYLHWFLQKPGQSPRLLIYKVSNRFSGVPDRFSGSGSGTDFTLKISRVEAEDVGVYYCSQSTHVPWTFGQGTKVEIKR
notes: Mature antibody expressed from pVk-Hu266 and pVg1-Hu266 in Sp2/0 cells; also called exemplified anti-Aβ antibody
Regarding B2, the half-inhibitory concentration (IC50) in assay [4] was 7.5 µg/mL; in assay [6], 4 µg/mL. Besides, binding in assay [5] was characterised by a dissociation constant (Kd) of 4 pM.

The values are drawn from patent US20190161539A1 (published 2019).
